This note sets out measurements from publication PMC6863750 (Nature cell biology, 2018).

Assay [1] addresses purified recombinant Rac1 Q61L (analyte in SPR) (UniProt P63000 1-192, Q61L). Nature of the assay: SPR.
In assay [2] the target is His-Rac1 Q61L (immobilised in SPR) (UniProt P63000 1-192, Q61L). As to the kind of experiment: SPR.

B1: GST-CYRI-B RBD (domain or fragment)
chain: ESEKEIYNQVNVVLKDAEGILEDLQSYRGAGHEIREAIQHPADEKLQEKAWGAVVPLVGKLKKFYEFSQRLEAALRGLLGALTSTPYSPTQHLEREQALAKQFAEILHFTLRFDELKMTNPAIQNDFSYYRRTLSRMRINNVPAEGENEVNNELANRMSLFYAEATPMLKTLSDATTKFVSENKNLPIENTTDCLSTMASVCRVMLE
Regarding B1, in assay [1], the Kd worked out at 27 µM.

B2: CYRI-B RBD (analyte in SPR) (domain or fragment)
chain: ESEKEIYNQVNVVLKDAEGILEDLQSYRGAGHEIREAIQHPADEKLQEKAWGAVVPLVGKLKKFYEFSQRLEAALRGLLGALTSTPYSPTQHLEREQALAKQFAEILHFTLRFDELKMTNPAIQNDFSYYRRTLSRMRINNVPAEGENEVNNELANRMSLFYAEATPMLKTLSDATTKFVSENKNLPIENTTDCLSTMASVCRVMLE
B2: the affinity in assay [2], expressed as Kd, was 22 µM.
